Source: paper PMC4876634 (Nature chemical biology, 2016)
Changes are numbered by the printed parent chain.

What was measured:
[1] = molecular target: T1, Suv39h1 R24,K27A double mutant (FLAG-tagged) (human, UniProt O43463 1-412, R24A | K27A); assay: pull-down
T1 sequence: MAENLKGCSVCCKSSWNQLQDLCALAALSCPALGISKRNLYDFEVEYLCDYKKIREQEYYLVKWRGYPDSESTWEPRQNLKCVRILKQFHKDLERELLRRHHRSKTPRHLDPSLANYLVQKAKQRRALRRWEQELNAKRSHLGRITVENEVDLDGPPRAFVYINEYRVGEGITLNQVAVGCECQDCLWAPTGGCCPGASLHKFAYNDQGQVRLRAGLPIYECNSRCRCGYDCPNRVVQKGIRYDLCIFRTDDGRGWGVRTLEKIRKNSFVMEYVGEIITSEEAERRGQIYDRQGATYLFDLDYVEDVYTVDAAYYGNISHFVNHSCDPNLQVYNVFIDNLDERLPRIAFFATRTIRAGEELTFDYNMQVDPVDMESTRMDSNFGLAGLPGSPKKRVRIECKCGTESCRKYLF

[2] = molecular target: T2, Suv39h1, wild type (FLAG-tagged, recombinant human) (human, UniProt O43463 1-412); assay: pull-down
T2 sequence: T1 sequence with A24R, A27K

- binding result [1]: binds
- binding result [2]: binds
B1: HP1β (human Cbx1), His6-tagged (natural protein)
chain: not shown
